Laboratory results as given in paper PMC8931054, “Structure-guided unlocking of NaX reveals a non-selective tetrodotoxin-sensitive cation channel” (Nature Communications, 2022).

Molecular target: T1, human NaX channel (human, UniProt Q01118 1-1682)
T1 construct: Full-length human NaX (sodium channel protein type 7 subunit alpha, gene SCN7A), cloned into a pRK vector behind a CMV promoter; Co-expressed and co-purified with untagged β3; No removal of the tags is described; also called SCN7A; source: Expi293 cells, co-transfected with β3, purified (anti-FLAG M2 agarose, Strep-Tactin XT, Superose 6); not shown: 2xStrepII, N-terminal, kept; 2xFLAG, …
T1 sequence (Q01118 whole entry): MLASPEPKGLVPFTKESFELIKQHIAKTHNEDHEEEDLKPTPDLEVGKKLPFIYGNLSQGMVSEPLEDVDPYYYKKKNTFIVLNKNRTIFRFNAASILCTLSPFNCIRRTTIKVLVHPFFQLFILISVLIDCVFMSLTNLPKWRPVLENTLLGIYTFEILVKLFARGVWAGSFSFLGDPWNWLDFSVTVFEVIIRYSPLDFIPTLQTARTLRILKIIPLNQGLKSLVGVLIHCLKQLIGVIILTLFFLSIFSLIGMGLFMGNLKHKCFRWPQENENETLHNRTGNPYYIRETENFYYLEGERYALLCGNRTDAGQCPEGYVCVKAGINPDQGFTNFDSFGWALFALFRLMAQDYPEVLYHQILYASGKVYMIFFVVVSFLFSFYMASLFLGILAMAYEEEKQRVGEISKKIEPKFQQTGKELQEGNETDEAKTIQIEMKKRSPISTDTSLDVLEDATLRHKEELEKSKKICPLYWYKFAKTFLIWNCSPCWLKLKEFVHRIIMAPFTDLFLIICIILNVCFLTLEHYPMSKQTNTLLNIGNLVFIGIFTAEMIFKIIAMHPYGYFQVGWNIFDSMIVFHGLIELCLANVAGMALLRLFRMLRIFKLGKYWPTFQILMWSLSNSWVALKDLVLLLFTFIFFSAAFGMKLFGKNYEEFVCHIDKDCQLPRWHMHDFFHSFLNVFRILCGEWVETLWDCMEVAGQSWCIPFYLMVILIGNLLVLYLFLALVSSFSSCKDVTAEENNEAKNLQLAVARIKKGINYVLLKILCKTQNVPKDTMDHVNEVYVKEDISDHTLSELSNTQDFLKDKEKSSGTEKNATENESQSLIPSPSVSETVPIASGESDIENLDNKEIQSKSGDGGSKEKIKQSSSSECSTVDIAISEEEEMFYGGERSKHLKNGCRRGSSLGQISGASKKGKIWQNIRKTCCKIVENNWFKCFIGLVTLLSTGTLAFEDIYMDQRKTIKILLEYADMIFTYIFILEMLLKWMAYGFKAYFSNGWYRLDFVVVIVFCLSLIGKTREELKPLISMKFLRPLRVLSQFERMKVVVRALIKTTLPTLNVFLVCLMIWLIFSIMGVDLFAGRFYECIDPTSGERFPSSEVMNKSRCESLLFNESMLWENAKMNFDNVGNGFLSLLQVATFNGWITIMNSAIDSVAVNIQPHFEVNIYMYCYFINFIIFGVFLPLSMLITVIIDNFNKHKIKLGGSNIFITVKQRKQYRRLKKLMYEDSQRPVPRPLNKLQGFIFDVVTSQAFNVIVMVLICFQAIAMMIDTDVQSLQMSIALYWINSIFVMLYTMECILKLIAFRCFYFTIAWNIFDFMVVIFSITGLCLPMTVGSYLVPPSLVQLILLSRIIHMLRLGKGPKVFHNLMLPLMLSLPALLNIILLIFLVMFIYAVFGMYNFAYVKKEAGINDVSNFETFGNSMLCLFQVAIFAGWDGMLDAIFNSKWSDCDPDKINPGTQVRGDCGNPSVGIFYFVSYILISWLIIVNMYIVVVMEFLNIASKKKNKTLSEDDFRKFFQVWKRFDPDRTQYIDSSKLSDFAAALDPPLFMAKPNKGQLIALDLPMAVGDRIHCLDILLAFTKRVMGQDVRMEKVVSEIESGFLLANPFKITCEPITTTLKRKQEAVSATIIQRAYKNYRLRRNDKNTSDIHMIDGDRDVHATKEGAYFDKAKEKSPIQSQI
Assay: cryo-EM structure; β3-NaX complex co-expressed in Expi293, purified in GDN by the tags on NaX, reconstituted into POPC:POPE:POPG nanodiscs (MSP1E3D1); 25 mM HEPES pH 7.0, 200 mM NaCl; cross-linked with 0.05% glutaraldehyde before vitrification
Conditions: both partners purified

B1: human β3-subunit (auxiliary NaV channel β3) (natural protein, UniProt Q9NY72 23-215, looked up)
chain: FPVCVEVPSETEAVQGNPMKLRCISCMKREEVEATTVVEWFYRPEGGKDFLIYEYRNGHQEVESPFQGRLQWNGSKDLQDVSITVLNVTLNDSGLYTCNVSREFEFEAHRPFVKTTRLIPLRVTEEAGEDFTSVVSEIMMYILLVFLTLWLLIEMIYCYRKVSKAEEAAQENASDYLAIPSENKENSAVPVEE
notes: Untagged full-length human sodium channel auxiliary β3-subunit, cloned into a pRK vector behind a CMV promoter; The full-length cDNA was expressed; also called NaVβ3; source: Expi293 cells, co-transfected with NaX, co-purified with tagged NaX
B1: binds.
